The results in this text go back to paper PMC11880434 (Nature Communications, 2025).

For one assay, the target named is T1, MbpR (Lactiplantibacillus plantarum, UniProt F9USQ8).
T1 sequence (F9USQ8 1-306): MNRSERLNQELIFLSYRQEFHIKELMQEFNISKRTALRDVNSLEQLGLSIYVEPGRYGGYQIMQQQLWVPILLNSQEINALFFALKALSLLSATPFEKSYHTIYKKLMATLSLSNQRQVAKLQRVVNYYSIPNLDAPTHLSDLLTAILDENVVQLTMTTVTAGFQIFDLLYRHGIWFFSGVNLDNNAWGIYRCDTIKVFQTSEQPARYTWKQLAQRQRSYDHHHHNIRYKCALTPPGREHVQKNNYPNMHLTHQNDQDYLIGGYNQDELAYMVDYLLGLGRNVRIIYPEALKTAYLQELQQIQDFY
In words: ITC. Format: binding.

The target of assay [1] is mucin binding domain of MbpB (L. plantarum WCFS1). In words: MST.
For assay [2], the target named is mucin binding domain of MbpA (L. plantarum WCFS1). In words: MST.

The Kd is the concentration at which binding is half-saturated. A low value points to higher affinity. Compound `Nc1nc2c(ncn2[C@@H]2O[C@@H]3CO[P@](=O)(O)O[C@H]4[C@@H](O)[C@H](n5cnc6c(=O)[nH]c(N)nc65)O[C@@H]4CO[P@](=O)(O)O[C@H]3[C@H]2O)c(=O)[nH]1` [c-di-GMP] gave an equilibrium dissociation constant (Kd) on MbpR of 220 nM.

As for mucin (natural protein), the dissociation constant Kd in assay [1] came to 690 nM; in assay [2], 530 nM.
